US20240293512A1 (HANMI PHARM, published 2024)
Bridge positions count the residues as written; N and C are the ends. Square brackets hold non-standard residues; d marks the D form. Ends that are not written are not given here. * marks the point of attachment. Acetyl(2-(4-imidazolyl)) = O=C(Cc1c[nH]cn1)*; Aib = CC(C)(N)C(=O)O

B1: triple agonist of SEQ ID NO: 70 (peptide)
peptide: Y[Aib]QGTFTSDYSKCLDEKRAKDFVQWLLDHHPSSGQPPPS
modifications: bridge 16-20
B2: triple agonist of SEQ ID NO: 67 (peptide)
peptide: Y[Aib]QGTFTSDYSKYLDECAAKDFVQWLLDHHPSSGQPPPS
modifications: bridge (positions not given here); ends not checked; also: ring formation between two underlined residues
B3: triple agonist of SEQ ID NO: 59 (peptide)
peptide: {Acetyl(2-(4-imidazolyl))}-[Aib]QGTFTSDYSICMDEKHQKDFVNWLLNTK
modifications: bridge 15-19
B4: triple agonist of SEQ ID NO: 68 (peptide)
peptide: Y[Aib]QGTFTSDYSKCLDEKAAKEFVQWLLDHHPSSGQPPPS
modifications: bridge 16-20
B5: triple agonist of SEQ ID NO: 80 (peptide)
peptide: H[Aib]EGTFTSDYSIAMDEIHQKDFVDWLLAEKC
modifications: bridge 16-20
B6: triple agonist of SEQ ID NO: 63 (peptide)
peptide: {Acetyl(2-(4-imidazolyl))}-[Aib]QGTFTSDCSKYLDERAAQDFVQWLLDGGPSSGAPPPS
B7: triple agonist of SEQ ID NO: 75 (peptide)
peptide: Y[Aib]QGTFTSDYSKYLDEKAAKEFVQWLLDHHPSSGQPPPSC
modifications: bridge 16-20
B8: triple agonist of SEQ ID NO: 8 (peptide)
peptide: H[Aib]QGTFTSDVSKYLDGQAAQEFVAWLLKGC
B9: triple agonist of SEQ ID NO: 73 (peptide)
peptide: {Acetyl(2-(4-imidazolyl))}-[Aib]QGTFTSDYSKYLDECRAKEFVQWLLDHHPSSGQPPPS
modifications: bridge 15-19
B10: triple agonist of SEQ ID NO: 76 (peptide)
peptide: Y[Aib]QGTFTSDYSKYLDEKRAKDFVQWLLDHHPSSGQPPPSC
modifications: bridge 16-20
B11: triple agonist of SEQ ID NO: 61 (peptide)
peptide: {Acetyl(2-(4-imidazolyl))}-[Aib]QGTFTSDYSIAMDEIACKDFVNWLLNTK
modifications: bridge 15-19
B12: triple agonist of SEQ ID NO: 65 (peptide)
peptide: H[Aib]QGTFTSDYSKCLDEKRAKEFVQWLLDHHPSSGQPPPS
modifications: bridge 16-20
B13: triple agonist of SEQ ID NO: 83 (peptide)
peptide: [Acetyl(2-(4-imidazolyl))][Aib]EGTFTSDYSIAMDEIHQKDFVNWLLAQC
modifications: bridge 16-20
B14: triple agonist of SEQ ID NO: 66 (peptide)
peptide: Y[Aib]QGTFTSDYSKYLDECRAKDFVQWLLDHHPSSGQPPPS
modifications: bridge 16-20
B15: triple agonist of SEQ ID NO: 74 (peptide)
peptide: {Acetyl(2-(4-imidazolyl))}-[Aib]QGTFTSDYSKCLDEKRAKEFVQWLLDHHPSSGQPPPS
modifications: bridge 15-19
B16: triple agonist of SEQ ID NO: 79 (peptide)
peptide: H[Aib]EGTFTSDYSIAMDEIHQKDFVNWLLAQKC
modifications: bridge 16-20
B17: triple agonist of SEQ ID NO: 7 (peptide)
peptide: H[Aib]QGTFTSDVSKYLDGQAAKEFVAWLLKGC
B18: triple agonist of SEQ ID NO: 71 (peptide)
peptide: Y[Aib]QGTFTSDYSKYLDERACKDFVQWLLDHHPSSGQPPPS
modifications: bridge 16-20
B19: triple agonist of SEQ ID NO: 82 (peptide)
peptide: [Acetyl(2-(4-imidazolyl))][Aib]QGTFTSDYSKYLDEKRQKEFVQWLLDTC
modifications: bridge 16-20
B20: triple agonist of SEQ ID NO: 69 (peptide)
peptide: Y[Aib]QGTFTSDYSKCLDERAAKEFVQWLLDHHPSSGQPPPS
modifications: bridge 16-20
B21: triple agonist of SEQ ID NO: 77 (peptide)
peptide: Y[Aib]QGTFTSDYSKYLDEKAAKDFVQWLLDHHPSSGQPPPSC
modifications: bridge 16-20
B22: triple agonist of SEQ ID NO: 72 (peptide)
peptide: Y[Aib]QGTFTSDCSKYLDERAAKDFVQWLLDHHPSSGQPPPS
modifications: bridge 16-20
B23: triple agonist of SEQ ID NO: 60 (peptide)
peptide: {Acetyl(2-(4-imidazolyl))}-[Aib]QGTFTSDYSIAMDEKHCKDFVNWLLNTK
modifications: bridge 15-19
B24: triple agonist of SEQ ID NO: 81 (peptide)
peptide: [Acetyl(2-(4-imidazolyl))][Aib]QGTFTSDYSKYLDEKRQKEFVQWLLNTC
modifications: bridge 16-20
B25: triple agonist of SEQ ID NO: 64 (peptide)
peptide: Y[Aib]QGTFTSDYSKYLDECAAKEFVQWLLDHHPSSGQPPPS
modifications: bridge 16-20
B26: triple agonist of SEQ ID NO: 78 (peptide)
peptide: H[Aib]QGTFTSDYSKYLDEKRQKEFVQWLLDTKC
modifications: bridge 16-20
B27: triple agonist of SEQ ID NO: 62 (peptide)
peptide: {Acetyl(2-(4-imidazolyl))}-[Aib]QGTFTSDKSKYLDERAAQDFVQWLLDGGPSSGAPPPS

The binders below were run against human GLP-1 receptor (human, UniProt P43220 24-463) (assay: cell-based or functional assay).

Row | Binder | In vitro activity compared with native peptide (%) vs GLP-1 (cAMP EC50) [%]
1 | B1 | 15.1
2 | B2 | 28.5
3 | B3 | 40.3
4 | B4 | 27.9
5 | B5 | 8.1
6 | B6 | 15.3
7 | B7 | 35.1
8 | B8 | 14.2
9 | B9 | 22.6
10 | B10 | 10.3
11 | B11 | 59.8
12 | B12 | 95.4
13 | B13 | 47.3
14 | B14 | 15.8
15 | B15 | 12.9
16 | B16 | 41.5
17 | B17 | 13.7
18 | B18 | 90.1
19 | B19 | 9.5
20 | B20 | 24.3
21 | B21 | 38.7
22 | B22 | 11.5
23 | B23 | 106
24 | B24 | 7.8
25 | B25 | 64.6
26 | B26 | 51
27 | B27 | 5.2

Each binder was assayed against human GCG receptor (human, UniProt P47871 26-477) (assay: cell-based or functional assay).
human GCG receptor, sequence (P47871 26-477): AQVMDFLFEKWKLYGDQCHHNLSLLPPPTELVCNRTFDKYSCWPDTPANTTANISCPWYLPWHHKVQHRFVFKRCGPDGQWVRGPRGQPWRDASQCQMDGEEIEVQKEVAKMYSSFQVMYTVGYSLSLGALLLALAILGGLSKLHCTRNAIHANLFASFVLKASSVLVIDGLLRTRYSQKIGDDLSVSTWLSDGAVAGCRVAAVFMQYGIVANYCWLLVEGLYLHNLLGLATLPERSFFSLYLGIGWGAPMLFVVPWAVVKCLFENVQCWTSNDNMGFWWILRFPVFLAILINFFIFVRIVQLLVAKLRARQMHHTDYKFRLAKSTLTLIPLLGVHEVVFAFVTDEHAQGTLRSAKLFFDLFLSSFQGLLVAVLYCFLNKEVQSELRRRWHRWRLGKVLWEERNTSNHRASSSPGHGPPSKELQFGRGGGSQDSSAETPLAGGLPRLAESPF

Row | Binder | In vitro activity compared with native peptide (%) vs Glucagon (cAMP EC50) [%]
28 | B1 | 71.3
29 | B2 | 46.2
30 | B3 | < 0.1
31 | B4 | 8.8
32 | B5 | 0
33 | B6 | < 0.1
34 | B7 | 8.5
35 | B8 | 0.1
36 | B9 | 5.4
37 | B10 | 47.6
38 | B11 | < 0.1
39 | B12 | 25.2
40 | B13 | 1.3
41 | B14 | 172
42 | B15 | 0.9
43 | B16 | 4.9
44 | B17 | < 0.1
45 | B18 | 12.7
46 | B19 | 1.1
47 | B20 | 9.6
48 | B21 | 12.2
49 | B22 | 1
50 | B23 | < 0.1
51 | B24 | 0.3
52 | B25 | 60.1
53 | B26 | 14
54 | B27 | < 0.1

Each binder was assayed against T1, human GIP receptor (human, UniProt P48546 22-466) (assay: cell-based or functional assay).
T1 sequence (looked up): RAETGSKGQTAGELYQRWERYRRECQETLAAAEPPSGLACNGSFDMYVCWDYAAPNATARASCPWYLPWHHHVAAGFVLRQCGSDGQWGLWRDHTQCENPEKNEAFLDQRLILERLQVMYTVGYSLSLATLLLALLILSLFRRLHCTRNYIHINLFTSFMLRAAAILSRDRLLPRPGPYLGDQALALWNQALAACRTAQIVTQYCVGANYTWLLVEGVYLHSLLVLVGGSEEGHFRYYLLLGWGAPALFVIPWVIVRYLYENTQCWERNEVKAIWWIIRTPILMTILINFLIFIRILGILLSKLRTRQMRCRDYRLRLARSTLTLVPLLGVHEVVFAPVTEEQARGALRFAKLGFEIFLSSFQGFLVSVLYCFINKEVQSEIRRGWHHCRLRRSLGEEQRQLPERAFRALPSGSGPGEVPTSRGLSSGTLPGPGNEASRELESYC

Row | Binder | In vitro activity compared with native peptide (%) vs GIP (cAMP EC50) [%]
55 | B1 | 64.4
56 | B2 | 39.8
57 | B3 | 4
58 | B4 | 107
59 | B5 | 0.1
60 | B6 | < 0.1
61 | B7 | 18
62 | B8 | < 0.1
63 | B9 | 3
64 | B10 | 11.7
65 | B11 | 2.8
66 | B12 | 11.6
67 | B13 | 0.4
68 | B14 | 17.2
69 | B15 | 1
70 | B16 | 1.4
71 | B17 | < 0.1
72 | B18 | 94.7
73 | B19 | < 0.1
74 | B20 | 62.8
75 | B21 | 35.5
76 | B22 | 1.6
77 | B23 | 8.2
78 | B24 | < 0.1
79 | B25 | 92.9
80 | B26 | 0.12
81 | B27 | < 0.1
